Experimental data from US20240317847A1 (Bayer, published 2024).
Substitutions are numbered along the chain they refer to. Where two headings read alike, the source gives them in different places.

T1: murine IL-11 (mouse, UniProt P47873 22-199)
T1 construct: Invigate recombinant protein; biotinylated when immobilized in the Di-complex ELISA; also called mIL11; mIL-11
T1 sequence: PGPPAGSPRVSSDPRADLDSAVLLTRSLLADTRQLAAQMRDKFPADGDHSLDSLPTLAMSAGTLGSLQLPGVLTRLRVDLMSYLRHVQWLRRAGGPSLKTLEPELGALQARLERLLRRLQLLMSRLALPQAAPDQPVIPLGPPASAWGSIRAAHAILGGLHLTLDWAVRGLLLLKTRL

T2: cynomolgus IL-11 (cynomolgus, UniProt P20808 22-199)
T2 sequence: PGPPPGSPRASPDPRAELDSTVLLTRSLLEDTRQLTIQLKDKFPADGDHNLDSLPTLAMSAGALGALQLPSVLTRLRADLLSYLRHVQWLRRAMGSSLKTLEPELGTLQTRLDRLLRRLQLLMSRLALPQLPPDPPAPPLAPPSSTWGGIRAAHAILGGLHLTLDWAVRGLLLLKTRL

T3: human IL-11 (human, UniProt P20809 22-199)
T3 sequence: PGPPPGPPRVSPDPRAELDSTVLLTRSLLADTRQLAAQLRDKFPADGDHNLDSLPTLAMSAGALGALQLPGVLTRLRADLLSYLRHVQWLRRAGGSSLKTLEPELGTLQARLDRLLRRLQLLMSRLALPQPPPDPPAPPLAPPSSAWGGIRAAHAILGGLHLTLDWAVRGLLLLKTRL

T4: rat IL-11 (rat, UniProt Q99MF5 22-199)
T4 sequence: T1 sequence with S50N, L84F, G94A, V137A, I138V

T5: human IL2Ra (human, UniProt P01589 22-240, limits assumed)
T5 construct: coated on the ELISA plate; also called IL-2 receptor alpha
T5 sequence (looked up): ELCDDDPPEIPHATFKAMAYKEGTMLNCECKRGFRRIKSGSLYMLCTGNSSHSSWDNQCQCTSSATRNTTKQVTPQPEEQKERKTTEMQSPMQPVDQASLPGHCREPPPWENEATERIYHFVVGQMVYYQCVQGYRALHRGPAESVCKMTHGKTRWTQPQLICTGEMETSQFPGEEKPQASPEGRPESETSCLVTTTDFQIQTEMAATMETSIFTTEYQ

B1: TPP-23580 (antibody, mouse IgG1, kappa)
heavy: EVQLVQSGAEVKKPGASVKISCKASGYTFTDYNMDWVKQAPGQRLEWIGDINPHNGGPIYNQKFTGRATLTVDKSASTAYMELSSLRSEDTAVYYCARGELGHWYFDVWGQGTTVTVSSAKTTPPSVYPLAPGSAAQTNSMVTLGCLVKGYFPEPVTVTWNSGSLSSGVHTFPAVLQSDLYTLSSSVTVPSSTWPSETVTCNVAHPASSTKVDKKIVPRDCGCKPCICTVPEVSSVFIFPPKPKDVLTITLTPKVTCVVVDISKDDPEVQFSWFVDDVEVHTAQTQPREEQFNSTFRSVSELPIMHQDWLNGKEFKCRVNSAAFPAPIEKTISKTKGRPKAPQVYTIPPPKEQMAKDKVSLTCMITDFFPEDITVEWQWNGQPAENYKNTQPIMDTDGSYFVYSKLNVQKSNWEAGNTFTCSVLHEGLHNHHTEKSLSHSPGK
light: DIVLTQSPASLALSPGERATLSCRASKSVSTSGYSYIHWYQQKPGQPPRLLIYLASNLDSGVPARFSGSGSGTDFTLNIHPLEEEDFATYYCQHSRDLPPTFGQGTKLEIKRADAAPTVSIFPPSSEQLTSGGASVVCFLNNFYPKDINVKWKIDGSERQNGVLNSWTDQDSKDSTYSMSSTLTLTKDEYERHNSYTCEATHKTSTSPIVKSFNRNEC
notes: also called BSN 3C6 2.2-2.1-mIgG1Kappa; BSN 3C6 (WO2019238882)
B2: TPP-29523 (antibody, mouse IgG1)
heavy: QVQLVESGGGVVQPGRSLRLSCAASGFTFSHYDMHWVRQAPGKGLEWVAVISYEGSVKFYADSVKGRFTISRDNSKNTLYLQMNSLRAEDTAVYYCARTPGFHFDYWGQGTLVTVSSAKTTPPSVYPLAPGSAAQTNSMVTLGCLVKGYFPEPVTVTWNSGSLSSGVHTFPAVLQSDLYTLSSSVTVPSSTWPSETVTCNVAHPASSTKVDKKIVPRDCGCKPCICTVPEVSSVFIFPPKPKDVLTITLTPKVTCVVVDISKDDPEVQFSWFVDDVEVHTAQTQPREEQFNSTFRSVSELPIMHQDWLNGKEFKCRVNSAAFPAPIEKTISKTKGRPKAPQVYTIPPPKEQMAKDKVSLTCMITDFFPEDITVEWQWNGQPAENYKNTQPIMDTDGSYFVYSKLNVQKSNWEAGNTFTCSVLHEGLHNHHTEKSLSHSPGK
light: QSVLTQPPSASGTPGQRVTISCSGSSSNIGSNYVNWYQQLPGTAPKLLIYYDDLRPSGVPDRFSGSKSGTSASLAISGLRSEDEADYYCSAWDDSLSGVVFGGGTKLTVLGQPKSSPSVTLFPPSSEELETNKATLVCTITDFYPGVVTVDWKVDGTPVTQGMETTQPSKQSNNKYMASSYLTLTARAWERHSSYSCQVTHEGHTVEKSLSRADCS
notes: mIgG1, Lambda
B3: TPP-29520 (antibody, mouse IgG1)
heavy: B2 heavy with E54S, F102S
light: B2 light
notes: mIgG1, Lambda
B4: TPP-29521 (antibody, mouse IgG1)
heavy: B2 heavy with V57N
light: B2 light with N35S
notes: mIgG1, Lambda
B5: TPP-29522 (antibody, mouse IgG1)
heavy: B2 heavy with V57N
light: B2 light
notes: mIgG1, Lambda

Tests used:
murine IL-11 [1] = target: T1, murine IL-11; assay: Tri-complex ELISA, mIL-11 + mIL-11Ra-Fc + mgp130-Fc, inhibition of complex formation
Procedure: In a first step, 25 μl of goat anti human IgG (Sigma, #12136), diluted 1:1000 in coating buffer (Candor, #121125) was coated on the plate at 4° C. overnight. Next day, the plate was washed one time with 50 μl PBST and then blocked with 50 μl SmartBlock (Candor, #113125) for one hour at room temperature (RT). […] After three additional washes of the coated and blocked microtiter plate with PBS-T, 25 μl of each mixture were added and the assay plate was incubated for one hour at room temperature. After three additional washes, anti-mouse-gp130 biotinylated antibody (R&D, #BAF468) or anti-human gp130 biotinylated antibody (R&D, #BAF228), both 1:1000 in 10% SmartBlock PBS-T, was added and incubated for 1 hour at RT. After three additional washes, a Streptavidin-Peroxidase conjugate (Sigma, #S5512) 1:1000 in SmartBlock PBS-T was added and incubated for one hour at room temperature. After a final three washes, AmplexRed (Fisher Scientific, A12222), 1/1000 in PBS, 0,003% H₂O₂, was added as substrate and incubated for 15 min at RT in the dark. Then, the fluorescence was measured with a plate reader at 535/595 nm. Signals from dose responses were used to calculate IC50 values using GraphPad Prism software. Efficacy was calculated as [(signal measured at lowest antibody concentration−signal measured at the highest antibody concentration)×100] divided by (signal measured at lowest antibody concentration−signal measured in the absence of antibody at an IL11 concentration of 8.2E-11 [M]).
(§1) IgG converted antibodies were subjected to the experimental assay procedure described in Example 19 and IC50 [M], respectively efficacy (%) were calculated accordingly.

cynomolgus IL-11 = target: T2, cynomolgus IL-11; assay: cell-based or functional assay
human IL-11 [2] = target: T3, human IL-11; assay: cell-based or functional assay
rat IL-11 = target: T4, rat IL-11; assay: cell-based or functional assay
murine IL-11 [3] = target: T1, murine IL-11; assay: cell-based or functional assay
human IL-11 [4] = target: T3, human IL-11; assay: Tri-complex ELISA, hIL-11 + mIL-11Ra-Fc + hgp130-Fc, inhibition of complex formation
Procedure: In the Tri-complex ELISA format IL-11 antibodies are tested for their ability to inhibit the formation of a complex consisting of murine or human gp130-Fc fusion protein, with murine or human IL-11, and a murine IL11RA-Fc fusion protein. The assay format was adapted according to FIG. 18 (a, b), depending on whether murine or human IL-11 IgG antibodies were tested.
as §1

human IL2Ra = target: T5, human IL2Ra; assay: ELISA on coated IL2Ra, signal ratio to isotype control TPP-10159 at 3.3E-7 M antibody
Procedure: IL2RA (Peprotech, Germany, #200-02RC) was coated at 1 or 0 μg/ml (buffer only control) in 30 μl coating buffer (Candor, #113500) per well on a 384 well microtiter plate (Maxisorb, Nunc, #460518) over night at 4-8° C. After two washes with 50 μl/well washing buffer (PBS+0.05% Tween, pH 7.4), the plates were incubated for two hours at room temperature with 50 μl/well SmartBlock (Candor, #113500). After blocking, the plates were washed three times with washing buffer. Then, a dilution series of the respective antibody (1E-7 [M] down to 2E-13 [M]) in PBS+0.05% Tween, 10% SmartBlock were added in 30 μl to the microtiter plate and incubated for 90 min at room temperature. After three additional washes, 30 μl anti mouse IgG HRP-conjugated antibody (Biotechne, HAF007), diluted 1:1000 in PBS+0.05% Tween (pH 7.4), were added per well and incubated for one hour. After three additional washes, a mixture of Amplex red (Invitrogen, #12222, 10 mM stock solution in DMSO) 1:1000 diluted in PBS and H2O2 (30%, Merck, #107209)) diluted 1:10000 in PBS were added as substrate with 30 μl per well and incubated for 20 min in the dark. Relative fluorescence was measured with a microtiter plate reader at 535/590 nm.
IgG converted antibodies TPP-were tested for binding to IL2Ra as described in Example 20. The ratios of the signals obtained at an antibody concentration of 3.3E-7 [M] for IgG converted antibody versus the isotype control TPP-10159 were calculated and are shown in Table E22.

human IL-11 [5] = target: T3, human IL-11; assay: cell-based or functional assay; remark: listed apart in the source
murine IL-11 [6] = target: T1, murine IL-11; assay: cell-based or functional assay; remark: listed apart in the source

Binder	Efficacy (%) (murine IL-11 [1])	IC50 (murine IL-11 [1])	Efficacy (%), Stat3 reporter gene assay (cynomolgus IL-11)	Efficacy (%), Stat3 reporter gene assay (human IL-11 [2])	Efficacy (%), Stat3 reporter gene assay (rat IL-11)	IC50, Stat3 reporter gene assay (rat IL-11)	Efficacy (%), Stat3 reporter gene assay (murine IL-11 [3])	IC50, Stat3 reporter gene assay (murine IL-11 [3])	Efficacy (%) (human IL-11 [4])	IC50 (human IL-11 [4])	Antibody/Isotype Control Ratio of IL-2Ra Binding Signals (human IL2Ra)	Efficacy (%), Stat3 reporter gene assay (human IL-11 [5])	IC50, Stat3 reporter gene assay (human IL-11 [5])	Efficacy (%), Stat3 reporter gene assay (murine IL-11 [6])	IC50, Stat3 reporter gene assay (murine IL-11 [6])
B1	45.8%	31 nM	21.9%	64%	62.2%	14 nM	88.9%	7.9 nM	45.8%	3.4 nM	2.2 ratio	68.6%	8.7 nM	46.7%	28 nM
B2	84.3%	0.12 nM	–	–	–	–	–	–	84.3%	2.1 nM	1.2 ratio	–	–	–	–
B3	81.8%	0.13 nM	–	–	–	–	–	–	81.8%	1.3 nM	0.6 ratio	–	–	–	–
B4	85.7%	0.092 nM	–	–	–	–	–	–	85.7%	1.8 nM	0.7 ratio	–	–	–	–
B5	85.4%	0.11 nM	–	–	–	–	–	–	85.4%	2 nM	0.7 ratio	–	–	–	–
